Measurements published in PMC11796320 (The Febs Journal, 2024).
Several values for one entry are separate records, joined by “and”; a condition that tells them apart may be missing. Equal entries are not always repeated.

How the values were obtained:
cryo-EM structure = target: the molecule itself; assay: cryo-EM structure
[1] = target: the molecule itself; assay: cryo-EM 2D classification

B1: full-length mature human contactin-2 (CNTN2), residues 29-1012, wild type (natural protein, UniProt Q02246 29-1012, looked up)
chain: LGSQTTFGPVFEDQPLSVLFPEESTEEQVLLACRARASPPATYRWKMNGTEMKLEPGSRHQLVGGNLVIMNPTKAQDAGVYQCLASNPVGTVVSREAILRFGFLQEFSKEERDPVKAHEGWGVMLPCNPPAHYPGLSYRWLLNEFPNFIPTDGRHFVSQTTGNLYIARTNASDLGNYSCLATSHMDFSTKSVFSKFAQLNLAAEDTRLFAPSIKARFPAETYALVGQQVTLECFAFGNPVPRIKWRKVDGSLSPQWTTAEPTLQIPSVSFEDEGTYECEAENSKGRDTVQGRIIVQAQPEWLKVISDTEADIGSNLRWGCAAAGKPRPTVRWLRNGEPLASQNRVEVLAGDLRFSKLSLEDSGMYQCVAENKHGTIYASAELAVQALAPDFRLNPVRRLIPAARGGEILIPCQPRAAPKAVVLWSKGTEILVNSSRVTVTPDGTLIIRNISRSDEGKYTCFAENFMGKANSTGILSVRDATKITLAPSSADINLGDNLTLQCHASHDPTMDLTFTWTLDDFPIDFDKPGGHYRRTNVKETIGDLTILNAQLRHGGKYTCMAQTVVDSASKEATVLVRGPPGPPGGVVVRDIGDTTIQLSWSRGFDNHSPIAKYTLQARTPPAGKWKQVRTNPANIEGNAETAQVLGLTPWMDYEFRVIASNILGTGEPSGPSSKIRTREAAPSVAPSGLSGGGGAPGELIVNWTPMSREYQNGDGFGYLLSFRRQGSTHWQTARVPGADAQYFVYSNESVRPYTPFEVKIRSYNRRGDGPESLTALVYSAEEEPRVAPTKVWAKGVSSSEMNVTWEPVQQDMNGILLGYEIRYWKAGDKEAAADRVRTAGLDTSARVSGLHPNTKYHVTVRAYNRAGTGPASPSANATTMKPPPRRPPGNISWTFSSSSLSIKWDPVVPFRNESAVTGYKMLYQNDLHLTPTLHLTGKNWIEIPVPEDIGHALVQIRTTGPGGDGIPAEVHIVRNGGTSMMVEN
modifications: N-linked glycans at Asn76, Asn198, Asn461, Asn477, Asn498, Asn525 (densities in the cryo-EM map)
stoichiometry N (cryo-EM structure): 2 | stoichiometry N [1]: 4 and 6
